The results in this text go back to US20160207996A1 (ARGEN X N V, published 2016).

One assay addresses T1, Nt-GCGR-hFc (human, UniProt P47871 26-136).
T1 construct: domain: N-terminal domain; also called Nt-GCGR-Fc; recombinant N-terminal domain of GCGR; not shown: hFc
Put plainly: scFv binding ELISA, periplasmic extract on coated Nt-GCGR.

In assay [1] the target is T2, hNav1.7-loopA3-llama Fc fusion (human).
T2 construct: also called hNav1.7-loopA3-llFc; loopA3-llamaFc chimera
T2 chain: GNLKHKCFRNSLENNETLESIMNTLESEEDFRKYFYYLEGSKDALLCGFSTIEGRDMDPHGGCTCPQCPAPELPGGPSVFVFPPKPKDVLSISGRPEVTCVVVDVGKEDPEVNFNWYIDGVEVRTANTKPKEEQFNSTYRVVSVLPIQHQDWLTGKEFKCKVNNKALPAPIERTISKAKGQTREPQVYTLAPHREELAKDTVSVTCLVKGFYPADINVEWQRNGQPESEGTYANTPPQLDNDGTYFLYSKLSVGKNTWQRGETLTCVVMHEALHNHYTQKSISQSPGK
Put plainly: ELISA, coated hNav1.7-loopA3-llama Fc, mAb titrated. As for the experimental part:
mAbs originating from the loopA3-llama Fc immunization were assayed for their affinity for hNav1.7-loopA3. Therefore, a Maxisorp plate was coated with 10 ng/well of loopA3-llamaFc chimera and incubated overnight at 4° C. The next day, the plate was blocked with PBS+1% casein for 2 hours at RT. Subsequently a concentration gradient of antibodies was applied (range 0.25 pM-66 nM) for another hour. Antibody binding to loopA3 was detected using a HRP-conjugated anti-human Fc antibody (Abcam, Ab7499) (incubation 1 hour at RT, dilution 1/5000 in PBS+0.1% casein), followed by TMB addition and OD620 nm measurement. EC50 values were determined using GraphPad Prism software. For comparison purposes a known hNav1.7-loopA3 binding monoclonal antibody, UCB_932 (US2011/0135662), was tested.

Assay [2] deals with T2, hNav1.7-loopA3-llama Fc fusion. The assay is described as follows: Biacore SPR, antigen on CM5 chip, mAb in flow. As for the experimental part: (§1) In a further experiment, affinity of the loopA3-binding mAbs was determined using Biacore Surface Plasmon Resonance (SPR) analysis.
For assay [3], the target named is T3, GST-tagged hNav1.7-loopA3 (human, UniProt Q15858 269-339).
T3 construct: monomeric GST-tagged peptide; also called hNav1.7-loopA3-GST; Nav1.7-loopA3-GST; not shown: GST tag
T3 sequence (Q15858 269-339 limits assumed): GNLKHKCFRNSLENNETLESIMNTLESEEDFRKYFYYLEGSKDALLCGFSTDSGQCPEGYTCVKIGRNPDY
The assay is described as follows: Biacore SPR, antigen on CM5 chip, mAb in flow. As for the experimental part: as §1

T1 sequence (P47871 26-136): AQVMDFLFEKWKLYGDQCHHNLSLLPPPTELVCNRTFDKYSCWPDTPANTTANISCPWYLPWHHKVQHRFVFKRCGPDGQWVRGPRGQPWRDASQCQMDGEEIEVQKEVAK

B1: scFv D1 (scFv)
chain: QVQLQESGGGLVQPGGSLRLSCAASGFTFSWYAMSWVRQGPGKGLEWVSGINGGGGSTSYEDSVKGRFTISRDNAKNTLYLEMNSLKPEDTAVYYCARYSDGYSGSYTYTDMDYWGKGTLVSVSSQAVVTQEPSLSVSPGGTVTLTCGLNSGSVTNGNYPGWYQQTPGQAPRALIYSTNSRHSGVPGRYSGSISGNKAALTITGAEPEDEADYYCALWQAAGTVVFGGGTHLTVLG
For B1, the “ScFv binding ELISA signal” value with Nt-GCGR-hFc was determined as 0.1.

B2: scFv D3 (scFv)
chain: QVQVQESGGGLVQPGGSLRLSCATSGFTFSNYYMSWVRQAPGKGPEWVSSIYSDLSTTYYADSVKGRFTISRDRAKNTLYLQMNSLKSEDTAVYYCARLSTVAGMDYWGKGTLVTVSSSYELTQSPSVSVALRQTAKITCGGNDIESKSAQWYQQKPDQAPVLVIYADDRRPSEIPERFSGSNSGDTATLTISGAQAEDEADYYCQVWDSSANAAVFGGGTHLTVLG
As to B2, the “ScFv binding ELISA signal” value with Nt-GCGR-hFc stood at 0.987.

B3: 3F11 (antibody, human IgG1, V domains shown)
VH: QVQLVESGGGLVQPGGSLRLSCAASGFTFSSYWMYWVRQAPGKGLEWVSAINTGGGSTYYADSVKGRFTISRDNAKNTLYLQMNSLKPEDTALYYCARGPGYSGSYIEGWAYWGQGTQVTVSS
VL: DIVMTQSPTSVTASVGEKVTINCKSSQSVVSGSNQKSYLNWYQQRPGQSPRLLIYHASTQESGIPDRFSGSGSTTDFTLTISSVQPEDAAVYYCQQAYNNPYSFGSGTRLEIK
In the case of B3, the EC50 in assay [1] came to 0.072 nM. The Kd in assay [2] came to 0.0253 nM; in assay [3], 0.0374 nM. Besides, the figures for the koff in assay [2] and in assay [3] were 1.56e-05 s⁻¹ and 1.77e-05 s⁻¹, respectively.

B4: 2F12 (antibody, human IgG1, V domains shown)
VH: QVQLVESGGGLVQPGGSLRLSCAASGFTFSSYWMYWVRQAPGKGLEWVSAINTGGGSTYYADSVKGRFTISRDNAKNTLYLQMNSLKPEDTALYYCARGPGYSGKYIEGWAYWGQGTQVTVSS
VL: DIVMTQSPRSVTASVGEKVFINCKSSQSVVSESNQRSYLNWYQQRPGQSPRLLIYYASTQESGLPDRFSGSGSTTDFTLTISSVQPEDAAVYYCQQAYSAPYSFGSGTRLEIK
On to B4, for which it took 0.057 nM to reach a half-maximal effect in assay [1] (EC50). In assay [2], this molecule showed a Kd of 0.0241 nM and a koff of 1.92e-05 s⁻¹. Moreover, in assay [3], the Kd came to 0.0169 nM and the koff is 1.08e-05 s⁻¹.

B5: 2D11 (antibody, human IgG1, V domains shown)
VH: EVQLQESGPGLVKPSQTLSLTCTVSGGSITNSYYASSWIRQPPGKGLEWMGVIIYDGSTYYSPSLKSRTSISRDTSKNQFSLQLSSVTPEDTAVYYCARGLRVAGSYFTDFGTWGQGTQVTVSS
VL: SYELTQSPSVSVALRQAAKITCGGDNIASKHAHWYQQKPGQSPVLVIYKDSNRPSGIPERFSGSNSGNTATLTVSGAQAEDEADYYCQVWDSSANAAVFGGGTHLTVLG
In assay [1], B5 yielded a 50% effective concentration (EC50) of 0.071 nM. In assay [2], this molecule yielded a Kd of 0.0375 nM and a koff of 1.26e-05 s⁻¹. For the same molecule, in assay [3], the Kd came out at 0.0879 nM and the koff was determined as 2.13e-05 s⁻¹.

B6: scFv D2 (scFv)
chain: ELQLVESGGGLVQPGGSLRLSCATSGFTFSNYYMSWVRQAPGKGPEWVSSIYSDLSTTYYADSVKGRFTISRDRAKNTLYLQMNSLKSEDTAVYYCARLSTVAGVDYWGKGTLVTVSSSYELTQSPSVSVALRQAAKITCGGNDIGSKSAQWYQQKPGQAPVLVIYADSRRPSGIPERFSGSNSGNTATLTISGAQAEDEADYYCQVWDSSANAAVFGGGTHLTVLG
As for B6, the “ScFv binding ELISA signal” value with Nt-GCGR-hFc is 0.52.

B7: scFv C10 (scFv)
chain: EVQLVQPGAELRNPGASVKVSCKASGYTFTAYYIDWVRQAPGQGLEWMGRIDPEDGGTTYEQKFQGRVTFTADTSTSTVYVELSSLRSEDTAVYYCARSTEIPTIRYYGMDYWGKGTPVTVSSASAAASGSYELTQSPSVSVALRQTAKITCGGDNIGSKSAQWYQQKPGQAPVLVIYADSRRPSGIPERFSGSNSGNTATLTISGAQAEDEADYYCQVWDSSANAAVFGGGTHLTVLG
Turning to B7, the “ScFv binding ELISA signal” value with Nt-GCGR-hFc amounted to 0.88.
